Test results published in patent publication US20230285581A1 (published 2023).

T1: mouse MSR1 extracellular domain expressed with a N-terminal nonahistidine tag (mouse, UniProt P30204 79-458)
T1 construct: extracellular domain; Bought reagent; also called His9-mMSR1
T1 sequence: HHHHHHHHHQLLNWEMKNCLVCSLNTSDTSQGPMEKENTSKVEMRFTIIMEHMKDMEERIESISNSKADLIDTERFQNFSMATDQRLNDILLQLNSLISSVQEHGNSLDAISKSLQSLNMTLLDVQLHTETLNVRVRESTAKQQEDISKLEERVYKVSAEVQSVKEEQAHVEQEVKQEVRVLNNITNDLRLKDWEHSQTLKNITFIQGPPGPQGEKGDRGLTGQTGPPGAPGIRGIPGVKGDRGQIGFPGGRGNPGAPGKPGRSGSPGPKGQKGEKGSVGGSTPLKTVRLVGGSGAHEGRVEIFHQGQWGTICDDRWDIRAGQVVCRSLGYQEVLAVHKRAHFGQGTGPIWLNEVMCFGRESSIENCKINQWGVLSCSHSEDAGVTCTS

T2: full length monkey MSR1 on HEK293.mfMSR1 cells (Macaca fascicularis, UniProt A0A2K5UWE2 1-451)
T2 construct: whole, on cells
T2 sequence: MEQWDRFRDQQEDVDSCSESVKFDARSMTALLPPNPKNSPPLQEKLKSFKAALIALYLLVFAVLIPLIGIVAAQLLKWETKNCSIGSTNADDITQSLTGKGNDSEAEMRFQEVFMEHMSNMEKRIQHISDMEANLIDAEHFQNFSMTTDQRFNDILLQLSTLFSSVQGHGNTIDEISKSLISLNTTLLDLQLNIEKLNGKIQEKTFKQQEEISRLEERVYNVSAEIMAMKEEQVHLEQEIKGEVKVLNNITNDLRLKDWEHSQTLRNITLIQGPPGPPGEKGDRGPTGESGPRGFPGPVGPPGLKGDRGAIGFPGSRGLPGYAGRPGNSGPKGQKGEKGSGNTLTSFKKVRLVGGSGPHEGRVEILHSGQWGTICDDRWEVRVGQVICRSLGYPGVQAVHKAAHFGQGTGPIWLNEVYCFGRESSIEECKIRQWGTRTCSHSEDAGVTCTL

B1: H1H21234N-N297Q (antibody, human IgG1, V domains shown)
VH: QVQLQESGPGLVKPSETLSLTCTVTGGSISRNYWSWIRQPPGKGLEWIGYIYYSGSIDYNPSLKSRVTISVDTSKNQFSLKLSSMTAADTAVYYCARDRWNWKYGMDVWGQGTTVIVSS
VL: EIVLTQSPGTLSLSPGERATLSCRASQTVRNNYLAWYHQKPGQAPRLLIYGASSRATGIPDRFSGSGSGTDFTLTISRLEPEDFTVYYCHQYGNSPWTFGQGTKMEIKR
notes: human IgG1 Fc with N297Q
B2: H1H21234N (antibody, human IgG1, V domains shown)
VH: B1 VH
VL: B1 VL
notes: original human IgG1 Fc
B3: H1H27766P2-N297Q (antibody, human IgG1, V domains shown)
VH: EVQLVESGGGLVQPGGSLRLSCAASGFTFSSFAMSWVRQAPGKELEWVSSISGRGGSTYYADSVRGRFTISRDNSKITLYLQMNSLRAEDTAVYYCAKDIVFRYTSSAYWYFDLWGRGTLVTVSS
VL: not shown
notes: human IgG1 Fc with N297Q; also called H1H27766P-N297Q
B4: H2aM21229N (antibody, mouse IgG2a, V domains shown)
VH: EVQLVESGGGLVKPGGSLRLSCAASGFTFSRYSMNWVRQAPGKGLEWVSSISSSSSYIYYGDTVKGRFTISRDNAKKSLYLQMNSLRAEDTAVYYCVRDRGQLVLYFDYWGQGTLVTVSS
VL: DIQMTQSPASLSTSIRDRVTITCRASLSISSFLNWFQQRPGKAPKLLIYVASNLQSGVPSRFSDSGSGTDFTLTISSLQPEDFATYYCQQNYSTPPITFGQGTRLEIK
notes: mouse IgG2a Fc (H2aM)
B5: H1xH29282P2 (antibody, V domains shown)
VH: EVQLVESGGGLVQPGGSLRLSCAASGFTFSTYAMSWVRQAPGKGLEWVSTISGRSDITYFADSVKGRFTVSRDNSKTTLYLQMNSLRAEDTAVYYCATDDDLPLDYWGQGTLVTVSS
VL: not shown
notes: the prefix H1xH is not explained for the anti-MSR1 antibodies

What was measured:
[1] = biological target: T1, mouse MSR1 extracellular domain …; experiment: BLI (Octet), 25C, mAb captured; no dissociation seen, kd fixed at 5.00E-05
Protocol: Binding affinities and kinetic constants of human anti-MSR1 antibodies for different MSR1 reagents were determined using a real time, label-free bio-layer interferometry assay on an OCTET® HTX biosensor platform (Pall FortéBio Corp., Menlo Park, Calif.). The experiment was performed at 25° C. in 10 mM HEPES, 150 mM NaCl, 3 mM EDTA, 0.05% v/v Surfactant Tween-20, and 1 mg/mL BSA, pH7.4 (HBS-EBT) buffer with the plate shaking at the speed of 1000 rpm. […] The anti-MSR1 monoclonal antibodies were captured by dipping either anti-human Fc (AHC) or anti-mouse Fc (AMC) Octet biosensors in wells containing 5 μg/mL or 10 μg/mL of anti-MSR1 monoclonal antibody for 45-90 seconds. […] The binding of different MSR1 reagents to the captured anti-MSR1 monoclonal antibody was measured for 4 minutes and the dissociation of monoclonal antibody bound MSR1 reagent was monitored for 8-10 minutes in HBS-EBT buffer.
The association rate (kₐ) and dissociation rate (kd) were determined by fitting the real-time binding sensorgrams to a 1:1 binding model with mass transport limitation using Scrubber 2.0c curve-fitting software. Binding dissociation equilibrium constant (KD) and dissociative half-life (t½) were calculated from the kinetic rates as:

[2] = biological target: T2, full length monkey MSR1 on …; experiment: ECL cell binding, HEK293.mfMSR1 cells

Binder	t½ [1]	ratio of 11 nM antibody binding signal (RLU) to isotype control [2]
B1	≥ 3.85 h	
B2	≥ 3.85 h	
B3		13 ratio
B4		27 ratio
B5		1 ratio
